B1: PlyCB, the cell wall binding subunit of the endolysin PlyC (PlyCB CBD, an octamer) (natural protein)
chain: MSKINVNVENVSGVQGFLFHTDGKESYGYRAFINGVEIGIKDIETVQGFQQIIPSINISKSDVEAIRKAMKK
notes: PlyCB, 8 kDa subunit of the streptococcal bacteriophage endolysin PlyC; Above about 74 °C in PBS the octamer is said to dissociate reversibly into a monomeric intermediate state; also called PlyCB octamer; PlyCB subunit; source: also as a subunit of the purified recombinant PlyC holoenzyme
B2: PlyCA, the catalytic subunit of the endolysin PlyC (enzyme, UniProt Q7Y3F1 1-465, looked up)
chain: MSKKYTQQQYEKYLAQPANNTFGLSPQQVADWFMGQAGARPVINSYGVNASNLVSTYIPKMQEYGVSYTLFLMYTVFEGGGAGNWINHYMYDTGSNGLECLEHDLQYIHGVWETYFPPALSAPECYPATEDNAGALDRFYQSLPGRTWGDVMIPSTMAGNAWVWAYNYCVNNQGAAPLVYFGNPYDSQIDSLLAMGADPFTGGSITGDGKNPSVGTGNATVSASSEANREKLKKALTDLFNNNLEHLSGEFYGNQVLNAMKYGTILKCDLTDDGLNAILQLIADVNLQTNPNPDKPTVQSPGQNDLGSGSDRVAANLANAQAQVGKYIGDGQCYAWVGWWSARVCGYSISYSTGDPMLPLIGDGMNAHSIHLGWDWSIANTGIVNYPVGTVGRKEDLRVGAIWCATAFSGAPFYTGQYGHTGIIESWSDTTVTVLEQNILGSPVIRSTYDLNTFLSTLTGLITFK

Legend:
[1] = molecular target: the molecule itself; test: cross-linking; PlyCB CBD 1 mg/mL in PBS heated 10 min at temperatures up to 74.4 °C, amine cross-linking with 1 mM BS3 for 10 min, quenched with Tris, cooled on ice, SDS-PAGE
[2] = molecular target: B2; test: SEC; 500 uL ice-cold 19.5 uM PlyCA added rapidly to 500 uL 15.6 uM PlyCB CBD in PBS heated to 75 °C, cooled on ice 5 min, centrifuged, HiPrep 16/60 Sephacryl S-200 HR in PBS; the peak corresponding to native PlyC analysed by SDS-PAGE; details: both partners purified
[3] = molecular target: B1; test: cell-based or functional assay

Binder	binding result [1]	binding result [2]	bacteriolytic activity toward S. pyogenes (turbidity reduction assay) of ice-cold PlyCA mixed about 1:1 with PlyCB CBD heated to 75 °C and then rapidly cooled, relative to native PlyC [3]
B1	binds	binds	
B2			35 % of the relative bacteriolytic activity of native PlyC
